Measurements reported in the RNAGym collection of RNA variant scans (doi:10.1021/acssynbio.7b00057).

B1: Pistol ribozyme (parent)
chain: GGGUCGUUGUUCCAUAAUCGCGUGGAUAUGGCACGCAAGUUUCUACCGGGCACCGUAAAUGUCCGACUGGAGCCGUUCGGGCGGCUAUAAACAGACCUCAGGCCCGAAGCGUGGCGGCACCUGCCGCCGGUGGUAAAAAAGAUCGGAAGAGCACACGUCU

Variants of: B1
Assay: aptazyme ON/OFF ratio, guanine; higher = stronger switching; co-transcriptional cleavage with and without guanine

Row | Variant | aptazyme ON/OFF ratio
1 | GGGUCGCUGUGAUAUAAUCGCGUGGAUAUGGCACGCAAGUUUCUACCGGGCACCGUAAAUGUCCGACUGGAGCCGUUCGGGCGGCUAUAAACAGACCUCAGGCCCGAAGCGUGGCGGCACCUGCCGCCGGUGGUAAAAAAGAUCGGAAGAGCACACGUCU [U7C U11G C12A C13U] | 1.17
2 | GGGUCGCCGCGCAAUAAUCGCGUGGAUAUGGCACGCAAGUUUCUACCGGGCACCGUAAAUGUCCGACUGGAGCCGUUCGGGCGGCUAUAAACAGACCUCAGGCCCGAAGCGUGGCGGCACCUGCCGCCGGUGGUAAAAAAGAUCGGAAGAGCACACGUCU [U7C U8C U10C U11G C13A] | 1.2
3 | GGGUCGGAUUGGGAUAAUCGCGUGGAUAUGGCACGCAAGUUUCUACCGGGCACCGUAAAUGUCCGACUGGAGCCGUUCGGGCGGCUAUAAACAGACCUCAGGCCCGAAGCGUGGCGGCACCUGCCGCCGGUGGUAAAAAAGAUCGGAAGAGCACACGUCU [U7G U8A G9U U11G C12G C13G] | 1.03
4 | GGGUCGGGCUCCAAUAAUCGCGUGGAUAUGGCACGCAAGUUUCUACCGGGCACCGUAAAUGUCCGACUGGAGCCGUUCGGGCGGCUAUAAACAGACCUCAGGCCCGAAGCGUGGCGGCACCUGCCGCCGGUGGUAAAAAAGAUCGGAAGAGCACACGUCU [U7G U8G G9C U11C C13A] | 1.4
5 | GGGUCGCCUCAGUAUAAUCGCGUGGAUAUGGCACGCAAGUUUCUACCGGGCACCGUAAAUGUCCGACUGGAGCCGUUCGGGCGGCUAUAAACAGACCUCAGGCCCGAAGCGUGGCGGCACCUGCCGCCGGUGGUAAAAAAGAUCGGAAGAGCACACGUCU [U7C U8C G9U U10C U11A C12G C13U] | 1.09
6 | GGGUCGUCAGGUAAUAAUCGCGUGGAUAUGGCACGCAAGUUUCUACCGGGCACCGUAAAUGUCCGACUGGAGCCGUUCGGGCGGCUAUAAACAGACCUCAGGCCCGAAGCGUGGCGGCACCUGCCGCCGGUGGUAAAAAAGAUCGGAAGAGCACACGUCU [U8C G9A U10G U11G C12U C13A] | 1.09
7 | GGGUCGGCUCAUUAUAAUCGCGUGGAUAUGGCACGCAAGUUUCUACCGGGCACCGUAAAUGUCCGACUGGAGCCGUUCGGGCGGCUAUAAACAGACCUCAGGCCCGAAGCGUGGCGGCACCUGCCGCCGGUGGUAAAAAAGAUCGGAAGAGCACACGUCU [U7G U8C G9U U10C U11A C12U C13U] | 1.9
8 | GGGUCGGGUGAGUAUAAUCGCGUGGAUAUGGCACGCAAGUUUCUACCGGGCACCGUAAAUGUCCGACUGGAGCCGUUCGGGCGGCUAUAAACAGACCUCAGGCCCGAAGCGUGGCGGCACCUGCCGCCGGUGGUAAAAAAGAUCGGAAGAGCACACGUCU [U7G U8G G9U U10G U11A C12G C13U] | 1.14
9 | GGGUCGUAUGUCUAUAAUCGCGUGGAUAUGGCACGCAAGUUUCUACCGGGCACCGUAAAUGUCCGACUGGAGCCGUUCGGGCGGCUAUAAACAGACCUCAGGCCCGAAGCGUGGCGGCACCUGCCGCCGGUGGUAAAAAAGAUCGGAAGAGCACACGUCU [U8A G9U U10G C13U] | 1.55
10 | GGGUCGAUACGCGAUAAUCGCGUGGAUAUGGCACGCAAGUUUCUACCGGGCACCGUAAAUGUCCGACUGGAGCCGUUCGGGCGGCUAUAAACAGACCUCAGGCCCGAAGCGUGGCGGCACCUGCCGCCGGUGGUAAAAAAGAUCGGAAGAGCACACGUCU [U7A G9A U10C U11G C13G] | 1.19
11 | GGGUCGGAGAGGCAUAAUCGCGUGGAUAUGGCACGCAAGUUUCUACCGGGCACCGUAAAUGUCCGACUGGAGCCGUUCGGGCGGCUAUAAACAGACCUCAGGCCCGAAGCGUGGCGGCACCUGCCGCCGGUGGUAAAAAAGAUCGGAAGAGCACACGUCU [U7G U8A U10A U11G C12G] | 1.33
12 | GGGUCGGGAUAACAUAAUCGCGUGGAUAUGGCACGCAAGUUUCUACCGGGCACCGUAAAUGUCCGACUGGAGCCGUUCGGGCGGCUAUAAACAGACCUCAGGCCCGAAGCGUGGCGGCACCUGCCGCCGGUGGUAAAAAAGAUCGGAAGAGCACACGUCU [U7G U8G G9A U11A C12A] | 1.38
13 | GGGUCGGAGGUUCAUAAUCGCGUGGAUAUGGCACGCAAGUUUCUACCGGGCACCGUAAAUGUCCGACUGGAGCCGUUCGGGCGGCUAUAAACAGACCUCAGGCCCGAAGCGUGGCGGCACCUGCCGCCGGUGGUAAAAAAGAUCGGAAGAGCACACGUCU [U7G U8A U10G C12U] | 1.17
14 | GGGUCGUUAGAAGAUAAUCGCGUGGAUAUGGCACGCAAGUUUCUACCGGGCACCGUAAAUGUCCGACUGGAGCCGUUCGGGCGGCUAUAAACAGACCUCAGGCCCGAAGCGUGGCGGCACCUGCCGCCGGUGGUAAAAAAGAUCGGAAGAGCACACGUCU [G9A U10G U11A C12A C13G] | 1.09
15 | GGGUCGCAUGCUAAUAAUCGCGUGGAUAUGGCACGCAAGUUUCUACCGGGCACCGUAAAUGUCCGACUGGAGCCGUUCGGGCGGCUAUAAACAGACCUCAGGCCCGAAGCGUGGCGGCACCUGCCGCCGGUGGUAAAAAAGAUCGGAAGAGCACACGUCU [U7C U8A G9U U10G U11C C12U C13A] | 1.16
16 | GGGUCGGGAAAGAAUAAUCGCGUGGAUAUGGCACGCAAGUUUCUACCGGGCACCGUAAAUGUCCGACUGGAGCCGUUCGGGCGGCUAUAAACAGACCUCAGGCCCGAAGCGUGGCGGCACCUGCCGCCGGUGGUAAAAAAGAUCGGAAGAGCACACGUCU [U7G U8G G9A U10A U11A C12G C13A] | 1.15
17 | GGGUCGGCUGUAUAUAAUCGCGUGGAUAUGGCACGCAAGUUUCUACCGGGCACCGUAAAUGUCCGACUGGAGCCGUUCGGGCGGCUAUAAACAGACCUCAGGCCCGAAGCGUGGCGGCACCUGCCGCCGGUGGUAAAAAAGAUCGGAAGAGCACACGUCU [U7G U8C G9U U10G C12A C13U] | 1.24
18 | GGGUCGGCUUUGUAUAAUCGCGUGGAUAUGGCACGCAAGUUUCUACCGGGCACCGUAAAUGUCCGACUGGAGCCGUUCGGGCGGCUAUAAACAGACCUCAGGCCCGAAGCGUGGCGGCACCUGCCGCCGGUGGUAAAAAAGAUCGGAAGAGCACACGUCU [U7G U8C G9U C12G C13U] | 1.32
